Experiment [1] has as its target T1, Nectin-4 on SK-BR-3 cells (UniProt Q96NY8 32-510, limits assumed).
T1 sequence (looked up): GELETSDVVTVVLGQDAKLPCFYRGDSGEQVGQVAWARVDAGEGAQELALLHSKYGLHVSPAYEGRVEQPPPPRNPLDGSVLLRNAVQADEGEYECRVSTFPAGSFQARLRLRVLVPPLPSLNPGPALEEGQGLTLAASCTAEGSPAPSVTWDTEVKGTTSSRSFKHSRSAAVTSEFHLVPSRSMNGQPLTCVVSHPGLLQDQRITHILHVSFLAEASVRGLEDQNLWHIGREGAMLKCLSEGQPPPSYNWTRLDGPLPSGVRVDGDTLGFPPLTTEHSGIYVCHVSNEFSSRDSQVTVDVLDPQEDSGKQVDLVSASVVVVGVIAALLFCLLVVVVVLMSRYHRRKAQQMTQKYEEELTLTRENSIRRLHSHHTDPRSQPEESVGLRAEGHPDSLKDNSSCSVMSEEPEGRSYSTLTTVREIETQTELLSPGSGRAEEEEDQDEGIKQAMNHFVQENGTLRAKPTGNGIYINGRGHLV
In words: cell-based or functional assay.

The target in experiment [2] is T2, Human Nectin-4 (PVRL4 Protein, ECD, His Tag) (human, UniProt Q96NY8 32-349).
T2 construct: extracellular domain; Recombinant protein captured on nickel NTA plates; also called hNectin-4; PVRL4-His; not shown: His tag
T2 sequence (looked up): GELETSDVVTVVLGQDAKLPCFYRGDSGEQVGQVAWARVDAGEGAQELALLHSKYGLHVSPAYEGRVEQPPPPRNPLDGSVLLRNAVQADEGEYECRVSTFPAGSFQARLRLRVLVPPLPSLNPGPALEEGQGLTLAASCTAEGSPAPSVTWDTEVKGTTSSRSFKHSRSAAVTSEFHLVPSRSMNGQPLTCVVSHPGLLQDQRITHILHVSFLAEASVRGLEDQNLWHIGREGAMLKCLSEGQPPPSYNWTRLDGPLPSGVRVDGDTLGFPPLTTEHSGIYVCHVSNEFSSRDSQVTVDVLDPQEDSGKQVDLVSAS
In words: ELISA; His-tagged Nectin-4 ECD on nickel NTA plates, detection with anti-human IgG-HRP. How it is done: Nickel NTA plates (Pierce™ Nickel coated plated, ThermoScientific™) were washed three times prior to use. Human Nectin-4 (PVRL4 Protein, ECD, His Tag) was dissolved at a concentration of […] in 0.1% BSA in PBS (PBA). 100 μL was added to each well and incubated while shaking for 1 hour at room temperature. After removal, the plate was washed 3x with 0.05% Tween-20 in PBS (washing buffer). ADCs were diluted in 0.1% PBA to a final concentration of 8 μg/mL and 100 μL was added to each well (in triplo). ADCs were incubated for 1 h at room temperature. Prior to the addition of 100 μL 1:1000 dilution of secondary antibody (Goat anti-human IgG, HRP conjugate, Invitrogen) the plate was washed 3x with washing buffer. The plate was incubated again for 1 h at room temperature and subsequently washed 3x with washing buffer and 3x with PBS. Finally, 100 μL TMB ELISA substrate (1 Step™ Turbo TMB ELISA substrate, ThermoScientific™) was added and incubated for 1 minute. The absorbance of the colorimetric signal was measured with Infinite® M1000 (Tecan) at 652 nm. Data was plotted corrected for the background (see FIG. 8).
A general note: ELISA stands for enzyme-linked immunosorbent assay.

B1: Enfortumab YTE-4 (other)
heavy: EVQLVESGGGLVQPGGSLRLSCAASGFTFSSYNMNWVRQAPGKGLEWVSYISSSSSTIYYADSVKGRFTISRDNAKNSLSLQMNSLRDEDTAVYYCARAYYYGMDVWGQGTTVTVSSASTKGPSVFPLAPSSKSTSGGTAALGCLVKDYFPEPVTVSWNSGALTSGVHTFPAVLQSSGLYSLSSVVTVPSSSLGTQTYICNVNHKPSNTKVDKRVEPKSCDKTHTCPPCPAPELLGGPSVFLFPPKPKDTLYITREPEVTCVVVDVSHEDPEVKFNWYVDGVEVHNAKTKPREEQYNSTYRVVSVLTVLHQDWLNGKEYKCKVSNKALPAPIEKTISKAKGQPREPQVYTLPPSREEMTKNQVSLTCLVKGFYPSDIAVEWESNGQPENNYKTTPPVLDSDGSFFLYSKLTVDKSRWQQGNVFSCSVMHEALHNHYTQKSLSLSPGK
light: DIQMTQSPSSVSASVGDRVTITCRASQGISGWLAWYQQKPGKAPKFLIYAASTLQSGVPSRFSGSGSGTDFTLTISSLQPEDFATYYCQQANSFPPTFGGGTKVEIKRTVAAPSVFIFPPSDEQLKSGTASVVCLLNNFYPREAKVQWKVDNALQSGNSQESVTEQDSKDSTYSLSSTLTLSKADYEKHKVYACEVTHQGLSSPVTKSFNRGEC
modifications: linker-payload 4 (BCN-HS-(vc-PABC-MMAE)2) clicked to 6-N3-GalNAc on the trimmed core GlcNAc of the heavy-chain glycan; average DAR 3.67
For B1, in experiment [1], the “IC50 (nM), in vitro cytotoxicity on SK-BR-3 cells (ATPlite luminescence)” value stood at 0.05 nM.

B2: enfortumab (I) (antibody, human IgG1, kappa)
heavy: not shown
light: DIQMTQSPSSVSASVGDRVTITCRASQGISGWLAWYQQKPGKAPKFLIYAASTLQSGVPSRFSGSGSGTDFTLTISSLQPEDFATYYCQQANSFPPTFGGGTKVEIKRTVAAPSVFIFPPSDEQLKSGTASVVCLLNNFYPREAKVQWKVDNALQSGNSQESVTEQDSKDSTYSLSSTLTLSKADYEKHKVYACEVTHQGLSSPVTKSFNRGEC
notes: IgG transiently expressed in CHO K1 cells; also called Ha22-2(2,4)6.1
Consider B2, for which, in experiment [2], the binding result was “binds”.

B3: enfortumab YTE (II) (antibody, human IgG1, kappa)
heavy: EVQLVESGGGLVQPGGSLRLSCAASGFTFSSYNMNWVRQAPGKGLEWVSYISSSSSTIYYADSVKGRFTISRDNAKNSLSLQMNSLRDEDTAVYYCARAYYYGMDVWGQGTTVTVSSASTKGPSVFPLAPSSKSTSGGTAALGCLVKDYFPEPVTVSWNSGALTSGVHTFPAVLQSSGLYSLSSVVTVPSSSLGTQTYICNVNHKPSNTKVDKRVEPKSCDKTHTCPPCPAPELLGGPSVFLFPPKPKDTLYITREPEVTCVVVDVSHEDPEVKFNWYVDGVEVHNAKTKPREEQYNSTYRVVSVLTVLHQDWLNGKEYKCKVSNKALPAPIEKTISKAKGQPREPQVYTLPPSREEMTKNQVSLTCLVKGFYPSDIAVEWESNGQPENNYKTTPPVLDSDGSFFLYSKLTVDKSRWQQGNVFSCSVMHEALHNHYTQKSLSLSPGK
light: DIQMTQSPSSVSASVGDRVTITCRASQGISGWLAWYQQKPGKAPKFLIYAASTLQSGVPSRFSGSGSGTDFTLTISSLQPEDFATYYCQQANSFPPTFGGGTKVEIKRTVAAPSVFIFPPSDEQLKSGTASVVCLLNNFYPREAKVQWKVDNALQSGNSQESVTEQDSKDSTYSLSSTLTLSKADYEKHKVYACEVTHQGLSSPVTKSFNRGEC
notes: also called enfortumab YTE mutant
In the case of B3, the binding result in experiment [2] is listed as “binds”.

These data come from patent US20250205353A1 (SYNAFFIX B V, published 2025).
